Measured values: patent US20110130328A1 (THE ADMINISTRATORS OF THE TULANE EDUCATIONAL FUND, published 2011)
No end group written: not given here.

B1: peptide 62 (18 mer of E1 of HCV strain H77) (peptide)
peptide: LPTTQLRRHIDLLVGSAT
B2: peptide 57 (18 mer of E1 of HCV strain H77) (peptide)
peptide: DAILHTPGCVPCVREGNA
B3: peptide 67 (18 mer of E1 of HCV strain H77) (peptide)
peptide: GQLFTFSPRHHWTTQDCN
B4: peptide 73 (18 mer of E1 of HCV strain H77) (peptide)
peptide: AALVVAQLLRIPQAIMDM
B5: peptide 56 (18 mer of E1 of HCV strain H77) (peptide)
peptide: SIVYEAADAILHTPGCVP
B6: peptide 52 (18 mer of E1 of HCV strain H77) (peptide)
peptide: SCLTVPASAYQVRNSSGL
B7: peptide 63 (18 mer of E1 of HCV strain H77) (peptide)
peptide: RHIDLLVGSATLCSALYV
B8: peptide 58 (18 mer of E1 of HCV strain H77) (peptide)
peptide: GCVPCVREGNASRCWVAV
B9: peptide 75 (18 mer of E1 of HCV strain H77) (peptide)
peptide: IMDMIAGAHWGVLAGIKY
B10: peptide 65 (18 mer of E1 of HCV strain H77) (peptide)
peptide: ALYVGDLCGSVFLVGQLF
modifications: not fully specified
B11: peptide 55 (18 mer of E1 of HCV strain H77) (peptide)
peptide: TNDCPNSSVVYEAADAIL
B12: peptide 72 (18 mer of E1 of HCV strain H77) (peptide)
peptide: MMNWSPTAALVVAQLLRI
B13: peptide 66 (18 mer of E1 of HCV strain H77) (peptide)
peptide: CGSVFLVGQLFTFSPRHH
B14: peptide 54 (18 mer of E1 of HCV strain H77) (peptide)
peptide: SSGLYHVTNDCPNSSIVY
B15: peptide 69 (18 mer of E1 of HCV strain H77) (peptide)
peptide: QDCNCSIYPGHITGHRMA
modifications: not fully specified; cysteine pairing not given here
B16: peptide 77 (18 mer of E1 of HCV strain H77) (peptide)
peptide: GIKYFSMVGNWAKVLVVL
B17: peptide 79 (18 mer of E1 of HCV strain H77) (peptide)
peptide: LVVLLLFAGVDAETHVTG
B18: peptide 53 (18 mer of E1 of HCV strain H77) (peptide)
peptide: SAYQVRNSSGLYHVTNDC
B19: peptide 64 (18 mer of E1 of HCV strain H77) (peptide)
peptide: GSATLCSALYVGDLCGSV
B20: peptide 68 (18 mer of E1 of HCV strain H77) (peptide)
peptide: PRHHWTTQDCNCSIYPGH
B21: peptide 61 (18 mer of E1 of HCV strain H77) (peptide)
peptide: VATRDGKLPTTQLRRHID
B22: peptide 74 (18 mer of E1 of HCV strain H77) (peptide)
peptide: LLRIPQAIMDMIAGAHWG
B23: peptide 76 (18 mer of E1 of HCV strain H77) (peptide)
peptide: AHWGVLAGIKYFSMVGNW
B24: peptide 78 (18 mer of E1 of HCV strain H77) (peptide)
peptide: VGNWAKVLVVLLLFAGVD

biological target: envelope glycoproteins E1 and E2 of the H77 strain of HCV, on HIV-core pseudotype virions (hepatitis C virus strain H77, UniProt P27958); experiment: cell-based or functional assay

Point of comparison: B21, “Percent Inhibition of infection by the H77-E1E2 pseudotype (luciferase), peptide at about 25 µM” value -30.8%. Against it:
- B1 — higher, -1.96%
- B2 — lower, -49.4%
- B3 — higher, 43.2%
- B4 — higher, 11.5%
- B5 — higher, 42.3%
- B6 — higher, -17.2%
- B7 — higher, 49.1%
- B8 — higher, -4.42%
- B9 — higher, 0.32%
- B11 — higher, 1.12%
- B12 — higher, 33.4%
- B13 — higher, 79.5%
- B14 — higher, 99.9%
- B16 — higher, 50.4%
- B17 — higher, 10.6%
- B18 — higher, 0.23%
- B19 — higher, 0.55%
- B20 — higher, 31.3%
- B22 — higher, 71.1%
- B23 — higher, 15.3%

Point of comparison: B10, “Percent Inhibition of infection by the H77-E1E2 pseudotype (luciferase), peptide marked by asterisk: actual concentration 10 µM or less” value 22.9%. Against it:
- B15 — lower, -73.1%
- B24 — lower, -21.1%
